Data on eight substances can be found in PMC5843284.

Test [1] addresses HIV-1 group M capsid (HIV-1 group M).
Test [2] shares this target. This is another data set of the same source.

Take chimpanzee TRIM-RanCyp: in test [1], the fold restriction of single-cycle HIV-1 infection in CRFK cells stably expressing the TRIM fusion, against the negative control is 100 fold. The substance gorilla TRIM-RanCyp had a fold restriction of single-cycle HIV-1 infection in CRFK cells stably expressing the TRIM fusion, against the negative control in test [1] of 2 fold. “gorilla TRIM-RanCyp with the human residue 75G” showed a fold change of restriction of single-cycle HIV-1 infection in CRFK cells stably expressing the TRIM fusion, against gorilla TRIM-RanCyp in test [2] of 35 fold. The substance “human TRIM-RanCyp with the gorilla residue 75R” had a fold decrease in fold change of restriction of single-cycle HIV-1 infection in CRFK cells stably expressing the TRIM fusion, against human TRIM-RanCyp in test [2] of 70 fold. Consider marmoset TRIM-RanCyp, for which the fold restriction of single-cycle HIV-1 infection in CRFK cells stably expressing the TRIM fusion, against the negative control in test [1] is 100 fold.

Substance orangutan TRIM-RanCyp returned a fold restriction of single-cycle HIV-1 infection in CRFK cells stably expressing the TRIM fusion, against the negative control in test [1] of 100 fold. On to red-capped mangabey TRIM-RanCyp, for which the fold restriction of single-cycle HIV-1 infection in CRFK cells stably expressing the TRIM fusion, against the negative control in test [1] worked out at 100 fold. Same read-out and setting: in the case of titi monkey TRIM-RanCyp it was 100 fold.
